The nature of this series: Isoelectric point of expressed clathrin heavy chain preparation. The format is physicochemical. As to conditions: recombinant human clathrin isoform 2 heavy chain with 6His tag from E. coli. The source says: The preparation yielded a protein with the following characteristics: […]

Experimental findings from patent publication US11666664B2, “Self assembling molecules for targeted drug delivery” (The General Hospital Corporation, priority 2015, dated 2023) are described below.

For the substance “PE1130119-1: Clathrin human isoform 2 heavy chain expressed in E. coli, soluble protein with 6His tag”, the “Isoelectric Point” value is recorded as 5.67.
